Data reported in PMC6355839, “Functional role of PGAM5 multimeric assemblies and their polymerization into filaments” (Nature Communications, 2019).

B1: ∆90 PGAM5 H105A (residues 91–289), catalytically dead phosphatase domain (domain or fragment, UniProt Q96HS1 91-289, looked up)
chain: HYKAKATRHIFLIRASQYHVDGSLEKDRTLTPLGREQAELTGLRLASLGLKFNKIVHSSMTRAIETTDIISRHLPGVCKVSTDLLREGAPIEPDPPVSHWKPEAVQYYEDGARIEAAFRNYIHRADARQEEDSYEIFICHANVIRYIVCRALQFPPEGWLRLSLNNGSITHLVIRPNGRVALRTLGDTGFMPPDKITRS
notes: PGAM5 long isoform (PGAM5L), residues 91-289, phosphatase domain, H105A; His6 followed by a TEV site (ENLYFQS); cleavage not described; also called Δ90 PGAM5 H105A; ∆90 H105A PGAM5; source: E. coli BL21 DE3 pLysS, purified (Ni-NTA, SEC)

Legend:
[1] = biological target: B1; test: crystal structure; ∆90 H105A PGAM5 7.5 mg/mL with ASK1 peptide:MM peptide:protein 3:3:1; 100 mM Tris-Cl pH 7.0, 200 mM MgCl2, 10% PEG 8000; 2.6 Å; twelve molecules in the asymmetric unit; conditions: both partners purified
[2] = biological target: the molecule itself; test: SEC; Superose 6 10/300 GL Increase; 20 mM Tris-Cl pH 8.0, 150 mM NaCl, 0.5 mM TCEP; salt titration up to 1 M NaCl
[3] = biological target: the molecule itself; test: cryo-EM structure; 2D class averages only (top view, 4.5 Å); 0.10 mg/mL in 20 mM Tris-Cl pH 8.0, 600 mM NaCl, 0.5 mM TCEP
[4] = biological target: the molecule itself; test: cell-based or functional assay
[5] = biological target: the molecule itself; test: negative-stain electron microscopy; samples from SEC peaks (~0.01–0.1 mg/mL), 0.75% uranyl formate; 150 mM NaCl buffer; filaments decompose into rings at 300 and 750 mM NaCl
[6] = biological target: the molecule itself; test: crystal structure; ∆90 H105A PGAM5 7.5 mg/mL with ASK1 peptide:MM peptide:protein 3:3:1; 100 mM Tris-Cl pH 7.0, 200 mM MgCl2, 10% PEG 8000; 2.6 Å; twelve molecules in the asymmetric unit
[7] = biological target: the molecule itself; test: crystal structure; ∆90 H105A PGAM5 5 mg/mL with ASK1 peptide 5:1, without MM peptide; 100 mM HEPES pH 7.5, 200 mM MgCl2, 30% PEG 400; 1.7 Å; two molecules in the asymmetric unit

Binder | stoichiometry N [2] | Kcat/Km of dephosphorylation of the ASK1 phosphopeptide (20 nM enzyme) [4] | other results
GPGVWDPNWDRREP (PGAM5 linker domain residues 54-67, holding the multimerization motif WDxxWD (58-63); source: synthetic peptide, bought: Elim Biopharma) [PGAM5 MM peptide (linker domain residues 54–67, multimerization motif)] | – | – | binding result [1]: binds
∆48 PGAM5 (residues 49–289), wild type (domain or fragment, UniProt Q96HS1 49-289, looked up, PGAM5 long isoform (PGAM5L, residues 1-289), residues 49-289: linker domain with the multimerization motif (58-63) and the PGAM phosphatase domain; His6 is followed by a TEV site (ENLYFQS); the methods describe no TEV cleavage; also called Δ48 PGAM5; ∆48 WT; source: E. coli BL21 DE3 pLysS, purified (Ni-NTA, SEC on Superose 6)) GGARPGPGVWDPNWDRREPLSLINVRKRNVESGEEELASKLDHYKAKATRHIFLIRHSQYHVDGSLEKDRTLTPLGREQAELTGLRLASLGLKFNKIVHSSMTRAIETTDIISRHLPGVCKVSTDLLREGAPIEPDPPVSHWKPEAVQYYEDGARIEAAFRNYIHRADARQEEDSYEIFICHANVIRYIVCRALQFPPEGWLRLSLNNGSITHLVIRPNGRVALRTLGDTGFMPPDKITRS | 2 | 19800 M⁻¹ s⁻¹ | stoichiometry N [3]: 12
∆48 PGAM5 Y198E (domain or fragment, UniProt Q96HS1 49-289, looked up, PGAM5 long isoform (PGAM5L), residues 49-289, Y198E; also called ∆48 Y198E; source: E. coli BL21 DE3 pLysS, purified (Ni-NTA, SEC)) GGARPGPGVWDPNWDRREPLSLINVRKRNVESGEEELASKLDHYKAKATRHIFLIRHSQYHVDGSLEKDRTLTPLGREQAELTGLRLASLGLKFNKIVHSSMTRAIETTDIISRHLPGVCKVSTDLLREGAPIEPDPPVSHWKPEAVQYEEDGARIEAAFRNYIHRADARQEEDSYEIFICHANVIRYIVCRALQFPPEGWLRLSLNNGSITHLVIRPNGRVALRTLGDTGFMPPDKITRS | 2 | 10000 M⁻¹ s⁻¹ | –
∆48 PGAM5 A4 (WDxxWD of the MM replaced by AAxxAA) (domain or fragment, UniProt Q96HS1 49-289, looked up, PGAM5 long isoform (PGAM5L), residues 49-289, W58A/D59A/W62A/D63A; also called ∆48 A4; A4 mutant; source: E. coli BL21 DE3 pLysS, purified (Ni-NTA, SEC)) GGARPGPGVAAPNAARREPLSLINVRKRNVESGEEELASKLDHYKAKATRHIFLIRHSQYHVDGSLEKDRTLTPLGREQAELTGLRLASLGLKFNKIVHSSMTRAIETTDIISRHLPGVCKVSTDLLREGAPIEPDPPVSHWKPEAVQYYEDGARIEAAFRNYIHRADARQEEDSYEIFICHANVIRYIVCRALQFPPEGWLRLSLNNGSITHLVIRPNGRVALRTLGDTGFMPPDKITRS | 2 | – | –
∆48 PGAM5 R288E (domain or fragment, UniProt Q96HS1 49-289, looked up, PGAM5 long isoform (PGAM5L), residues 49-289, R288E; also called ∆48 R288E; source: E. coli BL21 DE3 pLysS, purified (Ni-NTA, SEC)) GGARPGPGVWDPNWDRREPLSLINVRKRNVESGEEELASKLDHYKAKATRHIFLIRHSQYHVDGSLEKDRTLTPLGREQAELTGLRLASLGLKFNKIVHSSMTRAIETTDIISRHLPGVCKVSTDLLREGAPIEPDPPVSHWKPEAVQYYEDGARIEAAFRNYIHRADARQEEDSYEIFICHANVIRYIVCRALQFPPEGWLRLSLNNGSITHLVIRPNGRVALRTLGDTGFMPPDKITES | – | 13700 M⁻¹ s⁻¹ | stoichiometry N [5]: 12
∆48 PGAM5 R269E (domain or fragment, UniProt Q96HS1 49-289, looked up, PGAM5 long isoform (PGAM5L), residues 49-289, R269E; source: E. coli BL21 DE3 pLysS, purified (Ni-NTA, SEC)) GGARPGPGVWDPNWDRREPLSLINVRKRNVESGEEELASKLDHYKAKATRHIFLIRHSQYHVDGSLEKDRTLTPLGREQAELTGLRLASLGLKFNKIVHSSMTRAIETTDIISRHLPGVCKVSTDLLREGAPIEPDPPVSHWKPEAVQYYEDGARIEAAFRNYIHRADARQEEDSYEIFICHANVIRYIVCRALQFPPEGWLRLSLNNGSITHLVIRPNGEVALRTLGDTGFMPPDKITRS | – | – | binding result [5]: binds
∆48 PGAM5 R65A (domain or fragment, UniProt Q96HS1 49-289, looked up, PGAM5 long isoform (PGAM5L), residues 49-289, R65A; also called ∆48 R65A; source: E. coli BL21 DE3 pLysS, purified (Ni-NTA, SEC)) GGARPGPGVWDPNWDRAEPLSLINVRKRNVESGEEELASKLDHYKAKATRHIFLIRHSQYHVDGSLEKDRTLTPLGREQAELTGLRLASLGLKFNKIVHSSMTRAIETTDIISRHLPGVCKVSTDLLREGAPIEPDPPVSHWKPEAVQYYEDGARIEAAFRNYIHRADARQEEDSYEIFICHANVIRYIVCRALQFPPEGWLRLSLNNGSITHLVIRPNGRVALRTLGDTGFMPPDKITRS | 2 | 3170 M⁻¹ s⁻¹ | –
∆48 PGAM5 H105A (domain or fragment, UniProt Q96HS1 49-289, looked up, PGAM5 long isoform (PGAM5L), residues 49-289, H105A; also called ∆48 H105A; source: E. coli BL21 DE3 pLysS, purified (Ni-NTA, SEC)) GGARPGPGVWDPNWDRREPLSLINVRKRNVESGEEELASKLDHYKAKATRHIFLIRASQYHVDGSLEKDRTLTPLGREQAELTGLRLASLGLKFNKIVHSSMTRAIETTDIISRHLPGVCKVSTDLLREGAPIEPDPPVSHWKPEAVQYYEDGARIEAAFRNYIHRADARQEEDSYEIFICHANVIRYIVCRALQFPPEGWLRLSLNNGSITHLVIRPNGRVALRTLGDTGFMPPDKITRS | – | – | binding result [2]: binds
∆90 PGAM5 (residues 91–289), isolated phosphatase domain, wild type (domain or fragment, UniProt Q96HS1 91-289, looked up, PGAM5 long isoform (PGAM5L), residues 91-289, phosphatase domain; His6 followed by a TEV site (ENLYFQS); cleavage not described; also called Δ90 PGAM5; source: E. coli BL21 DE3 pLysS, purified (Ni-NTA, SEC on Superose 6)) HYKAKATRHIFLIRHSQYHVDGSLEKDRTLTPLGREQAELTGLRLASLGLKFNKIVHSSMTRAIETTDIISRHLPGVCKVSTDLLREGAPIEPDPPVSHWKPEAVQYYEDGARIEAAFRNYIHRADARQEEDSYEIFICHANVIRYIVCRALQFPPEGWLRLSLNNGSITHLVIRPNGRVALRTLGDTGFMPPDKITRS | 2 | – | –
B1 | – | – | stoichiometry N [6]: 12; stoichiometry N [7]: 2
